Data from paper PMC7005872.

Target: TBC1D9 (UniProt Q6ZT07)
Assay: co-IP of GFP-TBK1 and FLAG-TBC1D9
Conditions: reference: GFP-TBK1 wild type; sites S172

For “TBK1 (from UniProt Q9UHD2) GFP-TBK1 S172A”, the “binding against the reference” value was “lost”.
